Each block holds one molecule with its values, some of them ahead of it. Non-standard residues stand in square brackets, D forms with d. No end group written: not given here. Alexa 488 = Alexa Fluor 488 fluorescent dye; Nle = CCCC[C@H](N)C(=O)O
Experiments:
[1] = molecular target: human type 1 cholecystokinin receptor (CCK1R), CHO-CCK1R cell line (human) (UniProt P32238)
[2] = molecular target: T1, type 1 cholecystokinin receptor (CCK1R) (Homo sapiens, UniProt P32238); assay: fluorescence polarization kinetics (slowed alexa488-CCK off-rate); calcium assay fitted with operational allosteric model; type: cell-based
T1 construct: gene CCKAR; CHO-CCK1R cells and membranes
T1 sequence (P32238 1-428): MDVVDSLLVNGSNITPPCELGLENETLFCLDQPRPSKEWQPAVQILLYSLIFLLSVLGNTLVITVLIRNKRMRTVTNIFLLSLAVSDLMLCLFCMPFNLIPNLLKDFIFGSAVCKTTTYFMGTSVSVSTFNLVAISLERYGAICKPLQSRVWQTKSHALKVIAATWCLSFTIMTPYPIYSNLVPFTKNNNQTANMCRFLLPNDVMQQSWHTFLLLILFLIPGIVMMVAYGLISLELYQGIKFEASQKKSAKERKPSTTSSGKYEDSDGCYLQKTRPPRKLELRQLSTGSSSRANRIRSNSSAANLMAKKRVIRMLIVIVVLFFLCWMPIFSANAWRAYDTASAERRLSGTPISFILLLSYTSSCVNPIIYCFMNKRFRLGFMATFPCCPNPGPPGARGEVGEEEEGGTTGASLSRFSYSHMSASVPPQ

[3] = molecular target: Cynomolgus monkey CCK1R (Cynomolgus monkey)
[4] = molecular target: T2, rat type 1 CCK receptor (rat), P30551
T2 chain: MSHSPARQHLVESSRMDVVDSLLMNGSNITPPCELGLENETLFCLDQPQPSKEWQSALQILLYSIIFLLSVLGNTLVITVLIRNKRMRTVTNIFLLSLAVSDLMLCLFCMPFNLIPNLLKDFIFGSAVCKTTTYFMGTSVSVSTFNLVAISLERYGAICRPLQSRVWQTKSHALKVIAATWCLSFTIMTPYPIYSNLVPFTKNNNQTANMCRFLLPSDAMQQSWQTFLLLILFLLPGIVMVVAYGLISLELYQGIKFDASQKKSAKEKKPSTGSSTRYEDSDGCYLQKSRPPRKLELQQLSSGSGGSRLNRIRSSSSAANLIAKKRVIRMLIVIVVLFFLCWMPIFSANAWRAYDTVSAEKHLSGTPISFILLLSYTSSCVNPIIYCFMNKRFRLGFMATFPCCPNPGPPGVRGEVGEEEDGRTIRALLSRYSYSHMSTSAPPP

[5] = molecular target: Cynomolgus monkey CCK1R (Cynomolgus monkey); assay: radioligand binding; radioligand competition-binding assay on intact receptor-expressing cells; radioiodinated D-Tyr-Gly-[(Nle28,31)CCK-26-33] as radioligand, unlabeled CCK as competitor; duplicates, at least three independent experiments
[6] = molecular target: T3, human type 1 cholecystokinin receptor (CCK1R), CHO-CCK1R cell line (human, UniProt P32238 1-428); assay: fluorescence polarisation; alexa488-CCK (3.2 nM) added to CHO-CCK1R membranes in KRH buffer, pH 7.4, 0.2% bovine serum albumin; dissociation started with 1 µM unlabeled CCK-8; absence of Compound 1; conditions: one partner purified
T3 construct: type 1 cholecystokinin receptor, human, wild type; also called human CCK1R; WT CCK1R; source: CHO-K1 cell line stably expressing the receptor (CHO-CCK1R); intact cells and membranes
T3 sequence (looked up): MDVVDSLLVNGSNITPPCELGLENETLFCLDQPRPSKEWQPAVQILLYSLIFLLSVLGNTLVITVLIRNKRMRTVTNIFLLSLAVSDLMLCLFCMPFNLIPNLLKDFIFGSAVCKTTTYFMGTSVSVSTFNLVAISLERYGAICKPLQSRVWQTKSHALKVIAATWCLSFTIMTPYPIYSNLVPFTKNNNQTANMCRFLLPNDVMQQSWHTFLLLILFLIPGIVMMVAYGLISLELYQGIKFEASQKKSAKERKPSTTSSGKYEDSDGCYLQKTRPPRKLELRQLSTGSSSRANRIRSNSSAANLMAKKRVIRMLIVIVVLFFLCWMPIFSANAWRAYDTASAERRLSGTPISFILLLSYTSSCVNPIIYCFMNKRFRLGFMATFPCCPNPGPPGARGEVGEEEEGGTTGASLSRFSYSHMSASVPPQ

Molecule: C=C[C@H]1CN2CC[C@H]1C[C@@H]2CNC(=O)Nc1cccc(C(F)(F)F)c1 [Compound 1, 3-[(1S,2R,4S,5R)-5-ethenyl-1-azabicyclo[2.2.2]octan-2-yl]methyl-1-[3-(trifluoromethyl)phenyl]urea]
Kb [2]: 251 µM

B2: alexa^488-D-Tyr-Gly-[(Nle^28,31)CCK-26-33] (peptide)
chain: {Alexa 488}-[dY]GDY[Nle]GW[Nle]DF
modifications: ends and bridges not checked
koff [6]: 0.0217 s⁻¹ | kon [6]: 2.33e+06 M⁻¹ s⁻¹

Continued, values first:

pEC50 for CCK, peak intracellular calcium response in CHO cells expressing human CCK1R, + 10 µM Compound 1 [1]: 9.9 | pEC50 for CCK, peak intracellular calcium response in CHO cells expressing human CCK1R, control [1]: 9.1
Molecule: Synthetic CCK-58 (peptide)

pEC50 for CCK, peak intracellular calcium response in CHO cells expressing Cynomolgus monkey CCK1R, control [3]: 11.2 | pEC50 for CCK, peak intracellular calcium response in CHO cells expressing rat CCK1R, + 10 µM Compound 1 [4]: 11.9 | pKi [5]: 8.6
B1: Synthetic CCK-26-33 (CCK-8) (peptide)
chain: DYMGWMDF
modifications: not checked
